Test results as given in patent US20060142192A1 (ZymoGenetics, published 2006).

Columns and labels:
Assay in all cases: flow cytometry, biotinylated IL-17C (1 ug/ml) + streptavidin-PE on stably transfected BHK cells
[1] = biological target: T1, human ZcytoR21x6 (human, UniProt Q8NFR9 24-667)
T1 construct: also called hcytor21x6
T1 sequence: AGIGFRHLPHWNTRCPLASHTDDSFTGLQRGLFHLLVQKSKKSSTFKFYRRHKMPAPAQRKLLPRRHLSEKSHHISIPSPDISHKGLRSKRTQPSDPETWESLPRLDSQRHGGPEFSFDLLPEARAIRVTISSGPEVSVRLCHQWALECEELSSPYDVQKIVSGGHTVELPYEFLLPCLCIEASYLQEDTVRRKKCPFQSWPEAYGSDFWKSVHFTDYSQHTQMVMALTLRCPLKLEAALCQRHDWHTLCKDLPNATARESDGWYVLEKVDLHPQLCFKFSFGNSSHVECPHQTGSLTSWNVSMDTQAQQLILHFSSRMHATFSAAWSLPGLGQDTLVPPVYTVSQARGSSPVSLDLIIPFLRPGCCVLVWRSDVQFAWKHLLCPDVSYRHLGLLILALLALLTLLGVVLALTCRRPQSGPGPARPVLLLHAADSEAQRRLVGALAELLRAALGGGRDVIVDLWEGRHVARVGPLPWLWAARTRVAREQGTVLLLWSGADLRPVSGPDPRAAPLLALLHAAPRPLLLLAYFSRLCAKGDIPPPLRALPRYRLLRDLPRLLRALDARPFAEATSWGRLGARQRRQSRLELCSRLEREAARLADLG
Experimental: (§1) BHK cells stably transfected with human and mouse ZcytoR21 splice variants were plated and grown to confluency in T-75 flasks. Cells were lifted off using a non-protease reagent such as Versene (Invitrogen 15040-066), pelleted, and resuspended in a staining reagent (HBSS+1% BSA+0.1% NaAzide+10 mM HEPES) at 2×10e7 cells/ml and aliquoted to a 96-well Costar plate. IL-17C that has been labeled with biotin was independently added to cells at a concentration of 1 ug/ml. The cell/ligand mixture can be incubated for 1 hr at 4 degrees. The wells were washed 1× in staining reagent, and incubated in a secondary reagent containing staining reagent plus Streptavidin-PE (BD Pharmingen 554061) at a 1:100 ratio. The wells were incubated at 4° C. in the dark for 1 hr, followed by a 2× wash in staining media. The cells were then resuspended in a 1:1 mixture of staining media and Cytofix (BD Bioscience 554655) and incubated 10 minutes at RT. The cells were analysed by Flow Cytometry and by gating on the PE positive events for cells that bound IL-17C.

[2] = biological target: T2, human ZcytoR21x13 (human, UniProt Q8NFR9 24-667)
T2 construct: also called hcytor21x13
T2 sequence: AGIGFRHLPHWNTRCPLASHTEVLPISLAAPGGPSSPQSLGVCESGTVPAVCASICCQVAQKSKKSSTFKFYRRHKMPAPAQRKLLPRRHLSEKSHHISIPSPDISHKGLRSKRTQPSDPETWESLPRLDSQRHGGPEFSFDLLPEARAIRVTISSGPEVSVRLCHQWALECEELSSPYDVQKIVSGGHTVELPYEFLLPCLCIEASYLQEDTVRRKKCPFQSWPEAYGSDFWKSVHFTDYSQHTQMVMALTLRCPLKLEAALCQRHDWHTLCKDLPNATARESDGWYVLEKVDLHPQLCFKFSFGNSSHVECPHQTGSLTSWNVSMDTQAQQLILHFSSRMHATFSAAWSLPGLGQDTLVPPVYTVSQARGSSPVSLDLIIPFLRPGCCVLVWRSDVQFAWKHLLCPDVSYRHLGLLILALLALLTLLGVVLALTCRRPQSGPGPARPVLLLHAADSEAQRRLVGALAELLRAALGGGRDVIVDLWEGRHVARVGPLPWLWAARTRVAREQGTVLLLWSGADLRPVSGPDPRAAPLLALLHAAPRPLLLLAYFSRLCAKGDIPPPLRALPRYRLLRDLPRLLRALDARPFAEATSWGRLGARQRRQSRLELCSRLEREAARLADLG
Experimental: as §1

[3] = biological target: T3, murine ZcytoR21x6 (mouse, UniProt Q8BH06 24-637)
T3 construct: also called mouse ZcytoR21x6; mcytor21x6
T3 sequence: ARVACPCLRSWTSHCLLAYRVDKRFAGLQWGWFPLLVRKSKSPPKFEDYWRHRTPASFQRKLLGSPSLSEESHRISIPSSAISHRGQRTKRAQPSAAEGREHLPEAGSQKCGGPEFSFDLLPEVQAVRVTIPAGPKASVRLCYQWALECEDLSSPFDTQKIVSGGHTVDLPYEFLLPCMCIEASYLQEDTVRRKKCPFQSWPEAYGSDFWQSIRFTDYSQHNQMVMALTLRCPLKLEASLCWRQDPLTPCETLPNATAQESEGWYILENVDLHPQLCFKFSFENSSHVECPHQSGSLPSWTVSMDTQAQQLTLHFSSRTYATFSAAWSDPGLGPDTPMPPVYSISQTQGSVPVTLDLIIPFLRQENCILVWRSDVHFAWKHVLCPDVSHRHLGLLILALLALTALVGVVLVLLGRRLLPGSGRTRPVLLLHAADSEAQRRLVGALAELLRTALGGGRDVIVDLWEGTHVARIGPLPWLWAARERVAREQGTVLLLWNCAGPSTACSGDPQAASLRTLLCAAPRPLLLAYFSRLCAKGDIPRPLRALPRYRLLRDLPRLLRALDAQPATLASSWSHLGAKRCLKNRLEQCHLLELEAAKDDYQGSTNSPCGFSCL
Experimental: as §1

Measured: binding result

B1: human IL-17C (ligand)
chain: HHDPSLRGHPHSHGTPHCYSAEELPLGQAPPHLLARGAKWGQALPVALVSSLEAASHRGRHERPSATTQCPVLRPEEVLEADTHQRSISPWRYRVDTDEDRYPQKLAFAECLCRGCIDARTGRETAALNSVRLLQSLLVLRRRPCSRDGSGLPTPGAFAFHTEFIHVPVGCTCVLPRSV
modifications: biotin label in the binding assays (sites not given); unlabelled in the signalling assays
notes: it is the last residue of the open reading frame as I know it; Recombinant forms made carried a C-terminal Glu-Glu tag (BHK) or His tag (293F); also called biotinylated human IL-17C; human IL-17C (A903G)
binds: all assays above
